Measurements from US20240417475A1 (AFFIMED, published 2024).

How the values were obtained:
[1] = target: CD16A on in vitro differentiated human macrophages (human, UniProt P08637 17-254); experiment: cell-based or functional assay
[2] = target: T1, human FOLR1 endogenously expressed on tumor cell lines (human, UniProt P15328 25-234); experiment: flow cytometry on HCC-827 cells, 37 C, one-site fit of MFI, mean
T1 construct: whole, on cells; also called FOLR1-positive tumor cell lines; FOLR1+ target cells
Procedure: (§1) Cells were collected and centrifuged at 400×g, 5 min, 4° C. Cell pellets were resuspended in FACS buffer (PBS (Invitrogen, cat.: 392-0434) containing 2% h.i. FCS (Invitrogen, cat.: 10500-064), and 0.1% sodium azide (Sigma, cat.: S8032)) at 1-5×10⁶ cells/mL. 100 μL/well of the cell suspension were transferred into U-shaped, 96-well micro plates (0.1-0.5×10⁶ cells per well), cells were pelleted at 400×g, 5 min, 4° C., and resuspended in 100 μL/well of serial dilutions of the indicated antibodies in FACS buffer. After 40-50 min incubation at 37° C., cells were washed 3-times with ice-cold FACS buffer. […] After the final incubation step, cells were washed 2-times with ice-cold FACS buffer, and the cell pellet was resuspended in 100 μL FACS buffer. Fluorescence intensities of >1×10⁴ viable cells were analyzed by flow cytometry and the median fluorescence intensity (MFI) was determined for each sample.
(§2) Equilibrium dissociation constants (KD) of antibody binding, mean and standard deviation (SD) were calculated by plotting MFI values and fitting a non-linear regression model for one-site binding to hyperbolic dose-response curves using GraphPad Prism for Windows (v9; GraphPad Software; La Jolla California USA).
(§3) Specific antibody binding capacity (SABC) as a marker for FOLR1 expression level on cells was determined on all tumor cell lines using QIFIKIT.

[3] = target: T1, human FOLR1 endogenously expressed on …; experiment: flow cytometry on IGROV-1 cells, 37 C, one-site fit of MFI, mean
Procedure: as §1, §2, §3

[4] = target: T1, human FOLR1 endogenously expressed on …; experiment: flow cytometry on OVCAR-3 cells, 37 C, one-site fit of MFI, mean
Procedure: as §1, §2, §3

[5] = target: T1, human FOLR1 endogenously expressed on …; experiment: flow cytometry on NCI-H2110 cells, 37 C, one-site fit of MFI, mean
Procedure: as §1, §2, §3

[6] = target: T2, human FOLR1-mFc_Avi-tag (sAg_303) (human, UniProt P15328 25-234, limits assumed); experiment: ELISA, plate coated with human FOLR1-mFc_Avi-tag (sAg_303), one-site fit, mean of 3
T2 construct: also called human FOLR1 (sAg_303); recombinant human FOLR1
Procedure: (§4) 96 well ELISA plates (F96 Maxisorp Immuno Plate, Nunc, cat: 442404) were coated overnight at 4° C. with 50 μL/well of 10 μg/mL human FOLR1-mFc_Avi-tag in DPBS. After overnight incubation plates were washed three times with PBST and blocked with Candor Blocking solution for 2 h at RT under mild agitation. […] After incubation with the secondary antibodies, the plate was washed five times with PBST and one time with PBS. Chromogenic substrate (1:1 mixture of TMB:TMBB, SeraCare cat: 5120-0048 and 5120-0037) was added and the reaction was stopped by addition of an equal volume of 0.5 M H₂SO₄ after sufficient color development. Absorbance at 450 nm was measured in an ELISA plate reader (Sunrise Absorbance Reader 901000833, Schoeller Instruments). The absorbance values were corrected by subtracting the background of the respective secondary antibody and fitted with a one site binding function (hyperbola) using GraphPad Prism (version 9.3.1. GraphPad Software, La Jolla California USA). KD is the concentration of ligand required to reach half-maximal binding.

[7] = target: T2, human FOLR1-mFc_Avi-tag (sAg_303); experiment: ELISA, plate coated with human FOLR1-mFc_Avi-tag, anti-human Fab-HRP detection, A450
Procedure: as §4

[8] = target: T1, human FOLR1 endogenously expressed on …; experiment: flow cytometry on IGROV-1 cells (FOLR1 high) at 37 °C, FITC anti-human IgG detection
Procedure: as §1

[9] = target: T1, human FOLR1 endogenously expressed on …; experiment: flow cytometry on OVCAR-3 cells (FOLR1 medium) at 37 °C, FITC anti-human IgG detection
Procedure: as §1

[10] = target: T3, cynomolgus CD16 expressed on CHO cells (cAg_36) (cynomolgus, UniProt Q8SPW2 17-254); experiment: flow cytometry on cyCD16-transfected CHO cells (cAg_36), on ice, FITC goat anti-human IgG detection
T3 construct: whole, on cells; also called cyCD16
Procedure: (§5) After washing in FACS buffer, cells were incubated in 50 μL FACS buffer without antibodies or with titrated antibodies starting at a concentration of 1000 nM followed by elven 3-fold serial dilutions for 40-50 min on ice in the dark. […] After washing, binding was measured by flow cytometry and mean fluorescence intensities (MFI) of cell samples were calculated and corrected for background staining using control cells stained with secondary antibodies only.

[11] = target: T4, human CD16A (158F) expressed on CHO cells (cAg_34) (human, UniProt P08637 17-254); experiment: flow cytometry on huCD16A (158F)-transfected CHO cells (cAg_34), on ice, FITC goat anti-human IgG detection
T4 construct: also called huCD16A-transfected CHO cells
Procedure: as §5

[12] = target: T5, human CD16A (158V) expressed on CHO cells (cAg_35) (human, UniProt P08637 17-254); experiment: flow cytometry on huCD16A (158V)-transfected CHO cells (printed sAg_35), on ice, FITC goat anti-human IgG detection
T5 construct: also called huCD16A (158V)
Procedure: as §5

[13] = target: CD16A endogenously expressed on primary human NK cells (human, UniProt P08637 17-254); experiment: flow cytometry on primary human NK cells at 37 °C, biotinylated antibody, streptavidin-FITC, without polyclonal human IgG
Procedure: Frozen NK cells were thawed, and viability was determined with trypan blue (Sigma-Aldrich, cat.: T8154). Cells have been centrifuged at 400×g, 5 min, 4° C. Cell pellets were resuspended in FACS buffer PBS (Invitrogen, cat.: 392-0434) containing 2% h.i. FCS (Invitrogen, cat.: 10500-064), and 0.1% sodium azide (Sigma, cat.: S8032) at 2×10⁶ cells/mL. 100 μL/well of the cell suspension were transferred into U-shaped 96 well plates, cells were pelleted at 400×g, 5 min. 4° C., and resuspended in 50 μL/well of diluted antibody constructs. […] After 40-50 minutes' incubation at 37° C., cells were washed 3-times with ice-cold FACS buffer. […] After the final incubation step, cells were washed 2-times with ice-cold FACS buffer, and the cell pellet was resuspended in 50 μL FACS buffer. Fluorescence intensity of >1×10⁴ viable cells was analyzed by flow cytometry and the median fluorescence intensity (MFI) was determined for each sample.

Chain of CD16A on in vitro differentiated human macrophages (P08637 17-254 limits assumed): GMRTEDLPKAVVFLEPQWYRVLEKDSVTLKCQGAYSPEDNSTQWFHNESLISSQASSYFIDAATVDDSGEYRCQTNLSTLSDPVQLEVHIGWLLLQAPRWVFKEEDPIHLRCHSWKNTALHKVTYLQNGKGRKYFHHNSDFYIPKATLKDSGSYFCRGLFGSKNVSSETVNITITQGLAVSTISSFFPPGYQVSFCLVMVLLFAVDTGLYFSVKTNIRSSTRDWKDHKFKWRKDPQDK
T1 sequence (P15328 25-234): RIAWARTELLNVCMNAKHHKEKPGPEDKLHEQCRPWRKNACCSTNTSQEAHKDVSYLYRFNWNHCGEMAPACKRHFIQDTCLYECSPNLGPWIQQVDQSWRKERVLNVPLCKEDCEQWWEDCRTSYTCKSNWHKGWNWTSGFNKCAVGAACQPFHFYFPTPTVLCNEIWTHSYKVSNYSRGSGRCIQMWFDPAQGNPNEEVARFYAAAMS
T2 sequence (P15328 25-234 limits assumed): as the sequence (P15328 25-234) above
T5 sequence (P08637 17-254 F176V limits assumed): as the sequence (P08637 17-254 limits assumed) above, with F160V counted along it
Chain of CD16A endogenously expressed on primary human NK cells (P08637 17-254 limits assumed): as the sequence (P08637 17-254 limits assumed) above
T4 sequence (P08637 17-254 limits assumed): as above
T3 sequence (Q8SPW2 17-254): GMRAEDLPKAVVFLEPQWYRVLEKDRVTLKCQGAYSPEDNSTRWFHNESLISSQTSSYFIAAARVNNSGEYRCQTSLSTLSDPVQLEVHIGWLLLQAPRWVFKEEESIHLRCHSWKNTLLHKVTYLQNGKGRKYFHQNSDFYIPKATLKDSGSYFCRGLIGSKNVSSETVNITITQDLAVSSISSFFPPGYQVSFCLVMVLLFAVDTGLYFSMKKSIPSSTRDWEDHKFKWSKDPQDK

B1: scFv-IgAb_162 (FOLR1×RSV) (bispecific antibody)
heavy: EVQLVESGGGVVQPGRSLRLSCSASGFTFSGYGLSWVRQAPGKGLEWVAMISSGGSYTYYADSVKGRFAISRDNAKNTLFLQMDSLRPEDTGVYFCARHGDDPAWFAYWGQGTPVTVSSASTKGPSVFPLAPSSKSTSGGTAALGCLVKDYFPEPVTVSWNSGALTSGVHTFPAVLQSSGLYSLSSVVTVPSSSLGTQTYICNVNHKPSNTKVDKKVEPKSCDKTHTCPPCPAPEFEGGPSVFLFPPKPKDTLMISRTPEVTCVVVAVSHEDPEVKFNWYVDGVEVHNAKTKPREEQYNSTYRVVSVLTVLHQDWLNGKEYKCKVSNKALPAPIEKTISKAKGQPREPQVYTLPPSREEMTKNQVSLTCLVKGFYPSDIAVEWESNGQPENNYKTTPPVLDSDGSFFLYSKLTVDKSRWQQGNVFSCSVMHEALHNHYTQKSLSLSPGGGGGSGGGGSQVTLRESGPALVKPTQTLTLTCTFSGFSLSTAGMSVGWIRQPPGKALEWLADIWWDDKKHYNPSLKDRLTISKDTSKNQVVLKVTNMDPADTATYYCARDMIFNFYFDVWGQGTTVTVSSGGSGGSGGSGGSGGSGGSDIQMTQSPSTLSASVGDRVTITCSASSRVGYMHWYQQKPGKAPKLLIYDTSKLASGVPSRFSGSGSGTEFTLTISSLQPDDFATYYCFQGSGYPFTFGGGTKVEIK
light: DIQLTQSPSSLSASVGDRVTITCSVSSSISSNNLHWYQQKPGKAPKPWIYGTSNLASGVPSRFSGSGSGTDYTFTISSLQPEDIATYYCQQWSSYPYMYTFGQGTKVEIKRTVAAPSVFIFPPSDEQLKSGTASVVCLLNNFYPREAKVQWKVDNALQSGNSQESVTEQDSKDSTYSLSSTLTLSKADYEKHKVYACEVTHQGLSSPVTKSFNRGEC
notes: also called FOLR1/RSV scFv-IgAb_162; FOLR1×RSV(NIST); copies: 2 + 2
**Q.** Which results are given for B1?
**A.** Phagocytosis [%], 4 h ADCP, DK-MG cells [1]: 0%; Phagocytosis [%], 4 h ADCP, HCC-78 cells [1]: 0%; Phagocytosis [%], 4 h ADCP, HeLa cells [1]: 0%; Kd [2]: 3.7 nM; Kd [3]: 5.2 nM; Kd [4]: 2.5 nM; Kd [5]: 3 nM; Kd [6]: 0.06 nM; EC50 (read off the curve) [7]: ~0.05 nM; EC50 (read off the curve) [8]: ~4 nM; EC50 (read off the curve) [9]: ~2 nM; binding result [10]: no binding (tested: 1000 nM); binding result [11]: no binding (tested: 1000 nM); binding result [12]: no binding (tested: 1000 nM); binding result [13]: no binding (tested: about 500 nM)
